Data from patent publication US20150299252A1.
Where no end group is shown, it is not given here.

Target: T1, Fc-chimeric NKG2D, P26718
T1 chain: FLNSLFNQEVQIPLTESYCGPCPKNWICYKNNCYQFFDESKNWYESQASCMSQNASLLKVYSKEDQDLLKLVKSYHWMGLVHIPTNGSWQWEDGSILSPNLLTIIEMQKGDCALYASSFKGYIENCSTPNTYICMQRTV

B1: biotinylated SVH1C (quadravalent, C-terminal ε-biotinyl-lysine amide) (peptide)
peptide: NPSHPLSGGGGS
chain: KKKK
modifications: not fully specified (some residues, C-terminus); also: quadravalent: four peptide copies on lysine scaffold
B1 gave a Kd of 1000 nM.
